This note sets out measurements from US8728754B1, “Use of proteins isolated from Pseudomonas to control molluscs” (priority 2013, dated 2014).

This data set relates to mussels. The experiment in a line: Mussel bioassay in scintillation vials. Format: in vivo. As for the experimental part:
Mussel bioassays were performed in twenty milliliter scintillation vials. Ten small mussels (approximately 1 cm long) were incubated in the mussel water (10 mL) for 24 hr first, then the mussel water (10 mL) was changed freshly before test cell lysis was added. Cell lysis or proteins (maximal 500 μL) was added into each vial. After 24 hr, the mussel water with cell lysis or proteins was changed with clean mussel water. Then, mussel water was changed every 24 hr with clean mussel water. Dead mussels were taken away every day and mussel mortality was calculated by number of dead mussel divided by the number of total mussels.

B1: dihydrolipoamide dehydrogenase (protein, UniProt P14218 2-478, looked up)
Dihydrolipoyl dehydrogenase: SQKFDVVVIGAGPGGYVAAIRAAQLGLKTACIEKYIGKEGKVALGGTCLNVGCIPSKALLDSSYKYHEAKEAFKVHGIEAKGVTIDVPAMVARKANIVKNLTGGIATLFKANGVTSFEGHGKLLANKQVEVTGLDGKTQVLEAENVIIASGSRPVEIPPAPLSDDIIVDSTGALEFQAVPKKLGVIGAGVIGLELGSVWARLGAEVTVLEALDKFLPAADEQIAKEALKVLTKQGLNIRLGARVTASEVKKKQVTVTFTDANGEQKETFDKLIVAVGRRPVTTDLLAADSGVTLDERGFIYVDDHCKTSVPGVFAIGDVVRGAMLAHKASEEGVMVAERIAGHKAQMNYDLIPSVIYTHPEIAWVGKTEQTLKAEGVEVNVGTFPFAASGRAMAANDTTGLVKVIADAKTDRVLGVHVIGPSAAELVQQGAIGMEFGTSAEDLGMMVFSHPTLSEALHEAALAVNGHAIHIANRKKR
notes: Molluscicidal protein isolated from Pseudomonas CL145A, identified as dihydrolipoamide dehydrogenase
Turning to B1, the “Mussel mortality at 7th day” value (5 ppm, 7th day) was determined as 50%. For the same molecule, the “Activity in mussel bioassay of proteins and fractions dosed after gel analysis” value (in vivo) was “active”.
